Reference: publication PMC5617235

B1: Nanobody Nb474, C-terminally His-tagged (VHH)
VHH: QVQLQESGGGLVQPGGSLRLSCAASETALTYYAIGWFRQAPGKEREGVSCISRINSGSGARTDYADSVKGRFTISRDDAKNTVTLQMNSLEPEDTARYYCALDTTDRYDSANGRYYCTISSDTYDYWGQGTQVTVSS

Legend:
[1] = molecular target: T. congolense fructose-1,6-bisphosphate aldolase, wild type (Trypanosoma congolense); assay: SEC; analytical SEC of TcoALD alone; Superdex 200 HR 10/30, 50 mM MES, 500 mM NaCl, pH 6.7; calibrated with the Bio-Rad standard
[2] = molecular target: T. congolense fructose-1,6-bisphosphate aldolase, wild type (Trypanosoma congolense); assay: crystal structure; (Nb474-TcoALD)4 complex, His tags of both retained; 100 mM sodium cacodylate pH 6.5, 200 mM magnesium acetate, 10% PEG 8000, 20°C; 2.57 Å
[3] = molecular target: T. congolense fructose-1,6-bisphosphate aldolase, wild type (Trypanosoma congolense); assay: SEC; analytical SEC of 1 mg TcoALD mixed with Nb474 at Nb474:TcoALD ratios 1:4, 2:4, 3:4, 4:4, 6:4, incubated at least 1 h; Superdex 200 HR 10/30, 50 mM MES, 500 mM NaCl, pH 6.7; peaks analysed by SDS-PAGE
[4] = molecular target: T. congolense fructose-1,6-bisphosphate aldolase A77E mutant (Trypanosoma congolense); assay: SPR; SPR sandwich assay: immobilised Nb474 on CM5 saturated with a TcoALD variant, then Nb474 (0.5 nM to 1.0 uM) injected as second analyte; 20 mM HEPES, 150 mM NaCl, 0.005% Tween, 3.4 mM EDTA, pH 7.4; 1:1 Langmuir model for WT and A77E

| Molecule | stoichiometry N [1] | stoichiometry N [2] | stoichiometry N [3] | Kd [4] [nM] | koff [4] [s⁻¹] | kon [4] [M⁻¹ s⁻¹] | stoichiometry N (Nb474 per TcoALD monomer) [3] |
| --- | --- | --- | --- | --- | --- | --- | --- |
| T. congolense fructose-1,6-bisphosphate aldolase, wild type (enzyme) | 2 | 4 | 4 |  |  |  |  |
| B1 |  |  |  | 0.067 | 0.000141 | 2.11e+06 | 1 |
